This note sets out measurements from patent US20130224246A1 (MACFARLANE BURNET INSTITUTE FOR MEDICAL RESEARCH AND PUBLIC …, published 2013).

In experiment [1] the target is WT E2661 M + C597A (C452A, C486A, C569A, C581A, C585A, C597A and C652A) (HCV genotype 1a H77c, UniProt P27958 384-661). Kind of experiment: EIA: E2 titrated on coated MBP-LEL113-201 (5 ug/ml), detected with anti-His.
The target of another experiment is Δ123 E2661 M + C597A (HCV genotype 1a H77c, UniProt P27958 409-661). The description is as above.

B1: MBP-LEL113-201, maltose-binding protein linked to the CD81 large extracellular loop between residues 113 to 201 (receptor)
chain: FVNKDQIAKDVKQFYDQALQQAVVDDDANNAKAVVKTFHETLDCCGSSTLTALTTSVLKNNLCPSGSNIISNLFKEDCHQKIDDLFSGK
notes: range 113-201; also called CD81-LEL; CD81 LEL
For the molecule B1, the binding result (in experiment [1]; with Δ123 E2661 M + C597A) was “binds” in each case.
